From PMC9283627, “Auxotrophic and prototrophic conditional genetic networks reveal the rewiring of transcription factors in Escherichia coli” come the findings set out here.

The data set addresses T1, YneJ (Escherichia coli (K-12 strain not …, UniProt P77309 1-293)).
T1 sequence: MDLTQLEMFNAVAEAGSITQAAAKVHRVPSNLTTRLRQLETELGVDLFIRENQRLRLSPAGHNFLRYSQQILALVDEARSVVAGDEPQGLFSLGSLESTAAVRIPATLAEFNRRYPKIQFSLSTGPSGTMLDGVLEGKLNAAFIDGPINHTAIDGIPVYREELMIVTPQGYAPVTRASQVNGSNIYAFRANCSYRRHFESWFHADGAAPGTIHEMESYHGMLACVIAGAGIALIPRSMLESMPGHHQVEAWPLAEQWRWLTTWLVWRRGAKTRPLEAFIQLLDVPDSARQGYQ
Briefly: fluorescence polarization; 2 mM Gln; PBS (pH 6.5), 0.5 mM EDTA, 7 mM MgCl2, 100 mM KCl, 5 mM phosphate, herring sperm DNA, 50 C; 10 nM labeled dsDNA. The note with it: protein: recombinant; tags: N-terminal His6 (Methods; called YneJ-His6 in text); chain copies: 4; label: 6-FAM on S41 (printed at the 5' end; Methods say 3' end); blunt. (Polarisation of emitted light reports the rotation of a fluorescent probe.)

B1: sad-yneJ consensus motif 21 bp (dsDNA)
DNA 1: GGGTTCTCGATTCGTGAAGGG
DNA 2: CCCTTCACGAATCGAGAACCC
Consider B1, for which the binding result was “binds”.
